Results reported in publication PMC4278905, “Differential Binding of Lef1 and Msx1/2 Transcription Factors to Dkk1 CNEs Correlates with Reporter Gene Expression In Vivo”.

B1: CNE195Mut(TCF/Lef) (dsDNA)
DNA 1: ATGAATGAAACTTGAATTCGCAAGGGTCA
DNA 2: TGACCCTTGCGAATTCAAGTTTCATTCAT
B2: CNE195 Tcf/Lef (dsDNA)
DNA 1: ATGAATGAAACTTCAAAGGGCAAGGGTCA
DNA 2: TGACCCTTGCCCTTTGAAGTTTCATTCAT

Biological target: Lef1 (UniProt P27782 1-397)
Experiment: EMSA; 100 ng Lef1, 5 mM Mg2+, 1 ug poly(dI-dC); 20 mM Hepes pH 7.9, 60 mM KCl, 1 mM EDTA, 1 mM DTT, 5 mM MgCl2, 10% glycerol, 1 ug poly(dI-dC), 30 min on ice; 5% native PAGE, 0.5x TBE, 4 C
Details: protein: recombinant; tags: GST removed by thrombin (pGEX4T-1); label: 32P (T4 PNK, 5' end); blunt

Chain of Lef1 (P27782 whole entry): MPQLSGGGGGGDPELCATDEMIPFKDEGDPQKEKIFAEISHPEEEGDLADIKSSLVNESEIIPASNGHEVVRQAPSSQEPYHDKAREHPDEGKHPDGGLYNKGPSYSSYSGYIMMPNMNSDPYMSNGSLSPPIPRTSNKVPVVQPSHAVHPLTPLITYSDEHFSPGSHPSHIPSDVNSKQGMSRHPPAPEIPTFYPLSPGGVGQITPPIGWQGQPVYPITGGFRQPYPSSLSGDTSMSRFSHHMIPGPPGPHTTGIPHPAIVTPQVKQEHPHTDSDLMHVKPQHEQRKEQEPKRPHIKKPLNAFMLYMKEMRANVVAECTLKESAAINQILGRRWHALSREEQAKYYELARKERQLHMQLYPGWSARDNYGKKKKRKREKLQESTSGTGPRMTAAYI

Binder | binding result
B1 | no binding
B2 | binds
